Columns and labels:
[1] = molecular target: GST (glutathione S-transferase, negative control substrate) [GST: P08515]
[2] = molecular target: GST-MKK7 (unactive/inactive, Upstate) [GST: P08515]

B1: FLAG-PAK4 (human p21-activated kinase 4 ligated with FLAG-tag at its N-terminus) (protein)
chain: MFGKRKKRVEISAPSNFEHRVHTGFDQHEQKFTGLPRQWQSLIEESARRPKPLVDPACITSIQPGAPKTIVRGSKGAKDGALTLLLDEFENMSVTRSNSLRRDSPPPPARARQENGMPEEPATTARGGPGKAGSRGRFAGHSEAGGGSGDRRRAGPEKRPKSSREGSGGPQESSRDKRPLSGPDVGTPQPAGLASGAKLAAGRPFNTYPRADTDHPSRGAQGEPHDVAPNGPSAGGLAIPQSSSSSSRPPTRARGAPSPGVLGPHASEPQLAPPACTPAAPAVPGPPGPRSPQREPQRVSHEQFRAALQLVVDPGDPRSYLDNFIKIGEGSTGIVCIATVRSSGKLVAVKKMDLRKQQRRELLFNEVVIMRDYQHENVVEMYNSYLVGDELWVVMEFLEGGALTDIVTHTRMNEEQIAAVCLAVLQALSVLHAQGVIHRDIKSDSILLTHDGRVKLSDFGFCAQVSKEVPRRKSLVGTPYWMAPELISRLPYGPEVDIWSLGIMVIEMVDGEPPYFNEPPLKAMKMIRDNLPPRLKNLHKVSPSLKGFLDRLLVRDPAQRATAAELLKHPFLAKAGPPASIVPLMRQNRTR
in-vitro phosphorylation of the substrate (immune complex phosphorylation method, [γ-32P]ATP, SDS-PAGE, autoradiography) [1]: The phosphorylation was not observed when GST was used as a substrate for a negative control
in-vitro phosphorylation of the substrate (immune complex phosphorylation method, [γ-32P]ATP, SDS-PAGE, autoradiography) [2]: The phosphorylation of GST-MKK7 by PAK4 was observed

B2: HA-JIK (human JNK/SAPK-inhibitory kinase ligated with HA-tag at its N-terminus) (protein)
chain: MRKGVLKDPEIADLFYKDDPEELFIGLHEIGHGSFGAVYFATNAHTSEVVAIKKMSYSGKQTHEKWQDILKEVKFLRQLKHPNTIEYKGCYLKEHTAWLVMEYCLGSASDLLEVHKKPLQEVEIAAITHGALHGLAYLHSHALIHRDIKAGNILLTEPGQVKLADFGSASMASPANSFVGTPYWMAPEVILAMDEGQYDGKVDIWSLGITCIELAERKPPLFNMNAMSALYHIAQNDSPTLQSNEWTDSFRRFVDYCLQKIPQERPTSAELLRHDFVRRDRPLRVLIDLIQRTKDAVRELDNLQYRKMKKILFQETRNGPLNESQEDEEDSEHGTSLNREMDSLGSNHSIPSMSVSTGSQSSSVNSMQEVMDESSSELVMMHDDESTINSSSSVVHKKDHVFIRDEAGHGDPRPEPRPTQSVQSQALHYRNRERFATIKSASLVTRQIHEHEQENELREQMSGYKRMRRQHQKQLIALENKLKAEMDEHRLKLQKEVETHANNSSIELEKLAKKQVAIIEKEAKVAAADEKKFQQQILAQQKKDLTTFLESQKKQYKICKEKIKEEMNEDHSTPKKEKQERISKHKENLQHTQAEEEAHLLTQQRLYYDKNCRFFKRKIMIKRHEVEQQNIREELNKKRTQKEMEHAMLIRHDESTRELEYRQLHTLQKLRMDLIRLQHQTELENQLEYNKRRERELHRKHVMELRQQPKNLKAMEMQIKKQFQDTCKVQTKQYKALKNHQLEVTPKNEHKTILKTLKDEQTRKLAILAEQYEQSINEMMASQALRLDEAQEAECQALRLQLQQEMELLNAYQSKIKMQTEAQHERELQKLEQRVSLRRAHLEQKIEEELAALQKERSERIKNLLERQEREIETFDMESLRMGFGNLVTLDFPKEDYR
in-vitro phosphorylation of the substrate (immune complex phosphorylation method, [γ-32P]ATP, SDS-PAGE, autoradiography) [1]: The phosphorylation was not observed when GST was used as a substrate for a negative control
in-vitro phosphorylation of the substrate (immune complex phosphorylation method, [γ-32P]ATP, SDS-PAGE, autoradiography) [2]: The phosphorylation of GST-MKK7 by JIK was observed
